Target: extra-cellular domain of recombinantly expressed RSV F protein (human Respiratory Syncytial Virus)
Test: Biacore (SPR)

Chain of extra-cellular domain of recombinantly expressed RSV F protein (human Respiratory Syncytial Virus) (P03420 26-524): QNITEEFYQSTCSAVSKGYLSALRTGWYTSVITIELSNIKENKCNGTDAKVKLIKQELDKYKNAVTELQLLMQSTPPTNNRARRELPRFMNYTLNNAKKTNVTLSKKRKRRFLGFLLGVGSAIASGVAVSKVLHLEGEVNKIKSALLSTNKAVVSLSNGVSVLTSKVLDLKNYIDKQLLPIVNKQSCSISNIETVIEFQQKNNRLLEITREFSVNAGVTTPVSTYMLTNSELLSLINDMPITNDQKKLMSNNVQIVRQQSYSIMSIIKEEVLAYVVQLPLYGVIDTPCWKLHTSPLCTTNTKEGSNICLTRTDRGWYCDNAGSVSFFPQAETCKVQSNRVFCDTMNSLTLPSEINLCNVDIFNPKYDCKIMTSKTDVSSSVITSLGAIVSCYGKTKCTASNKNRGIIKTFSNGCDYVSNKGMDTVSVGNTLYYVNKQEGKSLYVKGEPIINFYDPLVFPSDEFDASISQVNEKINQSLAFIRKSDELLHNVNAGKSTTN

| Substance | Kd [nM] |
| --- | --- |
| Numax™ (antibody) | 0.24 |
| SYNAGIS® brand of pavilizumab (antibody) | 0.4 |
